{"source": "the domain aggregation screens of Martell et al. (2025)"}
{"experiment": "soluble fraction after stress (log2 fold change); higher = more stays soluble; pooled small domains, quantitative proteomics", "settings": "stress: pH 4", "outline": "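Pooled custom libraries of small protein domains were subjected to pH 4 and measured by high-throughput quantitative proteomics. The log2 fold change in soluble amount per domain is reported, higher values meaning more remained soluble. This is used as a measure of aggregation propensity.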"}
{"sequence": "HMQNSLKAFRVKRGLTTSALSRLTNGEFSTSRISNYETGVRALTIDAAKKLAPHLGASPAQLLNL", "soluble fraction (log2)": 0.371}
{"sequence": "HMEFDVELTSFEEAKKLKVIKEVKDVTGLSLGEAKDLVMGAPKAIKTGVSKEEAEAIKTQIEAAGAVVTI", "soluble fraction (log2)": -0.699}
{"sequence": "HMDINNTNFSRDVDNLLQNEEFIKWRIFRTKEWEDYWENFRKENPHMEDALQEAISRFNAVK", "soluble fraction (log2)": -0.736}
{"sequence": "HMKVDLSEEEKTILELLKKESPQELETIKAASTLSNKKWDKAIKGLRKHNLAKVNKTDDGLFVELE", "soluble fraction (log2)": 0.105}
{"sequence": "HMENVIYGINGPVVTVRNSRSFSMMEMVFVGNERLVGEVIGITDKITTIQVYEETTGLRPGEPVYGTGSPM", "soluble fraction (log2)": -0.842}
{"sequence": "HMKLRLGVNIDPVATVRNARGSAYPDPVRAAIIAQEAGADGITAHLREDRRHIVDQDITSIIKAIDIPLNF", "soluble fraction (log2)": -0.0902}
{"sequence": "HMSEPQEISYSDFIEQVNRNEIRQVEFDGQHEYLTVIRKDTSRFKVIIPAPDPRLLDDLMEHDVEIVGKE", "soluble fraction (log2)": 0.0554}
{"sequence": "HMHNNTITLNKKTYVYTASGKKMSKYLGYTYINKGTTLNYYGTKNIKGKTFYYIGDHAYVNAANVGKVTN", "soluble fraction (log2)": "≥ 0.43"}
{"sequence": "HMKLVELVGSPKQIAWAEDIRKNMISYLSALVRKYEAENRPARAEKRAKDMEILSNIKEASWFIENRS", "soluble fraction (log2)": 0.155}
{"sequence": "HMEDQVITQFNMRLIRAVMPQGAPMIVVYEDPKDYPGLFVARLFDGRKSTHLIALADTLEDI", "soluble fraction (log2)": -0.351}
{"sequence": "HMKLSDDIIVDTIKEIIEENKNMIEQRKMGAMGPLMGKAMAKFKGKADGQTVSNVIKDEILNIIN", "soluble fraction (log2)": 0.0647}
{"sequence": "HMKNYYSILGVTPDSSEAEIKSAYRRLARKFHPDVNPDGASRFKDISEAYETLSDAKKRFQYDTINGF", "soluble fraction (log2)": 0.234}
{"sequence": "HMAPVVELEDVTIVRGKATLLDRVNWVIDETDRWVIVGPNGAGKTTLLQVVSANLHPTSGKAMILDEVL", "soluble fraction (log2)": -0.366}
{"sequence": "HMTATIEEVNELTQSARVNINVPYAAKDEAKAYGAKWDDVERTWYTTGENYAQNKDFFDGFNPTAS", "soluble fraction (log2)": -0.132}
{"sequence": "HMKPEDIALLEEIRDLLKEKKSVIVNLEYVNKDVARRIVDFISGGVFALNGHIQKVSNSIFLVAPMN", "soluble fraction (log2)": -0.26}
{"sequence": "HMVLSTRERMSNILATLKGGHFVNFSDLFTPEEGRLGVVVTFLAMLELIKESLLDIVQHEVLGPIHVKARV", "soluble fraction (log2)": 0.0323}
{"sequence": "HMIQNEITLMLQVNGKLRGQIQVPSDASKEQIEQLAKDSEAAQKALAGASPKKIIVVPGRLVNIV", "soluble fraction (log2)": 0.183}
{"sequence": "HMTENQKNIDLIKIVSLLVHAAKIDENYTNKEKELIINFINNFSKENKQNIKSSEILEEAEKYEK", "soluble fraction (log2)": -0.0377}
{"sequence": "HMKIMSLSERHQKILELLKVNGIVSVNSLSRQLNVSSVTIRKDLGLLEEKKLLYRSHGGAIQID", "soluble fraction (log2)": -0.213}
{"sequence": "HMVGIVQKTFEPTGIAAEELMKTLKSDKSLDFGNVQILATPKSSTSRQVVVVSGRANDVDRVMMVLSNLDS", "soluble fraction (log2)": 0.015}
{"sequence": "HMTENLELLATGSLWTEPDGSGKIISYLIPGLRVKKLETNGIFYKIQLQNGLIGWADQSLFTIAEPK", "soluble fraction (log2)": -0.212}
{"sequence": "HMKTPAPRETILSLFRQTPDGFVSGERISDELGVSRTAVWKHIRNLRQAGYQIEAIPSRGYQLQQS", "soluble fraction (log2)": -0.0693}
{"sequence": "HMPQETPIPKSEIQSYDEIWLEPISTDNILRNELRGWYHVKDRWVENEFGNRFYLDTYASKWLAFPS", "soluble fraction (log2)": -0.752}
{"sequence": "HMSAHDLQVVLRWIGTDEPMTDQRYRITTEDGRTFEGRTDDAGLTERVASTIPFGRYSIEALD", "soluble fraction (log2)": -1}
{"sequence": "HMADQVVGQLGMVTQRIDNLQQTGRVSANGLDWAARSENGQPIPQGMPVEVLRIEGVKLIVRPVN", "soluble fraction (log2)": -0.00119}
{"sequence": "HMTKEEIVVNWLPRYTKRNLEDFGEYILLTNFNKYVEIFAEKFNVPILGRDANMISASAEGITIIN", "soluble fraction (log2)": -0.359}
{"sequence": "HMNDEFYAVVRESYAGYALVKPLDEDVGYDILSVSVKNLKVGDIIRLKVKNIKEIYPPEAEVLEVEVLQ", "soluble fraction (log2)": -1.59}
{"sequence": "HMRNMRKLWIARINAAARMNDISYSKLMHGLKLANVEINRKMLSEMAIDDPKSFTALVETAKKALNG", "soluble fraction (log2)": 0.303}
{"sequence": "HMFNIIARQEIDEILYEYKIENSEDYKNRDPEELAEIYENIKTVQENHDLSDDDVEELLKSIFSDY", "soluble fraction (log2)": -2.2}
